Assays:
[1] = biological target: T1, human B7H4 on the cell surface (human, UniProt Q7Z7D3 25-282); experiment: FACS, SK-BR-3 cells
T1 construct: whole, on cells; also called CHOK1/hu B7H4; B7H4 on SK-BR-3
T1 sequence (looked up): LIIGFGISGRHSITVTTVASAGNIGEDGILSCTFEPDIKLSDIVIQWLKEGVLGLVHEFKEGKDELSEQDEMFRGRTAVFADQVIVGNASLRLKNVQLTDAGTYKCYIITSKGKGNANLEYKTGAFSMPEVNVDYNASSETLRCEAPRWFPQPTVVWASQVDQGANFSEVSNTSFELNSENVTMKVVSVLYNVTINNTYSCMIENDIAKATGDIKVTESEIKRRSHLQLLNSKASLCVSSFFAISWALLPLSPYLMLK
Protocol: (§1) This example is intended to investigate the in vitro binding activity of anti-human B7H4 H2L2 monoclonal antibody to human/cynomolgus monkey/mouse B7H4. Antibody binding experiments at the cellular level were performed using CHOK1 cell line overexpressing human B7H4 (CHOK1/hu B7H4, Harbour BioMed), CHOK1 cell line overexpressing cynomolgus monkey B7H4 (CHOK1/cyno B7H4, Harbour BioMed), CHOK1 cell line overexpressing mouse B7H4 (CHOK1/m B7H4, Harbour BioMed) and SK-BR-3 cell line (ATCC® HTB-30) highly expressing human B7H4. Briefly, CHOK1/hu B7H4 cells, CHOK1/cyno B7H4 cells, CHOK1/m B7H4 cells or SK-BR-3 cells were digested and resuspended with PBS containing 2% BSA. The cell density was adjusted to 1×10⁶ cells/mL. The cells were seeded in a 96-well V-bottom plate (Corning, #3894) at 100 μL/well, followed by the addition of test antibodies diluted in a 3-fold concentration gradient of 2 times the final concentration, each at 100 μL/well. The cells were incubated at 4° C. for 2 h away from light. Thereafter, the cells in each well were rinsed twice with 100 μL of pre-cooled PBS containing 2% BSA, and centrifuged at 500 g at 4° C. for 5 min, and then the supernatant was discarded. […] Finally, the cells in each well were resuspended with 200 μL of pre-cooled PBS containing 2% BSA, and the fluorescence signal values were read using an ACEA Novocyte3000 flow cytometer.

[2] = biological target: T2, mouse B7H4 on the cell surface (mouse, UniProt Q7TSP5 25-257); experiment: FACS, CHOK1/m B7H4 cells
T2 construct: whole, on cells; also called CHOK1/m B7H4
T2 sequence (looked up): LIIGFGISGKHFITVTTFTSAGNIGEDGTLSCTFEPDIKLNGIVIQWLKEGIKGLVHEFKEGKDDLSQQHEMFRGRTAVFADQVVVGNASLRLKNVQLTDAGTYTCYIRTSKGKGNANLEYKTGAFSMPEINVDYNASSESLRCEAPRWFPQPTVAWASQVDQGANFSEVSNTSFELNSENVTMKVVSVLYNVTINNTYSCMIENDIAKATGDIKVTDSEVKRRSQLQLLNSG
Protocol: as §1

[3] = biological target: T3, cynomolgus monkey B7H4 on the cell surface (cynomolgus monkey, UniProt A0A2K5U6P5 25-282); experiment: FACS, CHOK1/cyno B7H4 cells
T3 construct: whole, on cells; also called CHOK1/cyno B7H4
T3 sequence: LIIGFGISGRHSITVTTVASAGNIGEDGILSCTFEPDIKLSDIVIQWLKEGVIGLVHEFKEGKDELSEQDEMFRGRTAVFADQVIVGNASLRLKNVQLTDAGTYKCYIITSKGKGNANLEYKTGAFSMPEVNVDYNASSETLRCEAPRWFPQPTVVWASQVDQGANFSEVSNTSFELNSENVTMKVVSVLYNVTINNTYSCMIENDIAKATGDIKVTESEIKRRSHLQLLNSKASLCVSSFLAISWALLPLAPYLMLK
Protocol: as §1

[4] = biological target: T4, B7-H4 (Acro Biosystems, #B74-H82E2) (UniProt Q7Z7D3 29-258); experiment: BLI epitope competition; 1st Ab = row; competitor (2nd Ab) PR002421; inhibition of the 2nd Ab signal
T4 construct: Bought protein; also called B7-H4 captured on SA sensor
T4 sequence (looked up): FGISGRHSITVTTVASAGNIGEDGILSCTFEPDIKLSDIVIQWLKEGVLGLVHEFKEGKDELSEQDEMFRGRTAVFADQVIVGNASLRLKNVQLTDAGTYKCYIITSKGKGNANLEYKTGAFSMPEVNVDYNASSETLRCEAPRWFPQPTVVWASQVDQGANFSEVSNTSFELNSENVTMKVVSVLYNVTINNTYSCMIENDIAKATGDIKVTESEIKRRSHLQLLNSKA
Protocol: (§2) Step one, acquisition of 100% signal of antibodies: B7-H4 (Acro Biosystems, #B74-H82E2-200 μg) was captured at a capture height of 0.25 nm using an SA sensor (Fortebio, #18-5019). The sensor was equilibrated in a buffer for 120 s and then immersed in each antibody diluted to 100 nM for 240 s, and the final signal of the antibody binding to B7-H4 was recorded as the 100% signal of the antibody. Step two, epitope competition experiment: B7-H4 was captured using an SA sensor at a capture height of 0.25 nm. The sensor was immersed in a primary antibody (at a concentration of 100 nM) for 240 s, and then the SA sensor was immersed in a mixture of the primary and secondary antibodies (both at a final concentration of 100 nM) for 240 s, and the difference in signals after immersion of the sensor in the antibody mixture was recorded as the signal of the antibody as the secondary antibody. The inhibition rate was calculated according to the following formula: […]

[5] = biological target: T4, B7-H4 (Acro Biosystems, #B74-H82E2); experiment: BLI epitope competition; 1st Ab = row; competitor (2nd Ab) Control antibody 1; inhibition of the 2nd Ab signal
Protocol: as §2

[6] = biological target: T1, human B7H4 on the cell surface; experiment: FACS on MDA-MB-468 cells; in the drawn table the number stands under the head 'EC50 (nM)' (the two heads are interchanged)

- EC50 [1]: 1.2 nM
- Maximum MFI [1]: 266000 MFI
- EC50 [2]: 1.38 nM
- Maximum MFI [2]: 858000 MFI
- EC50 [3]: 2.1 nM
- Maximum MFI [3]: 1.99e+06 MFI
- Competitive inhibition rate (%) [4]: 1.97%
- Competitive inhibition rate (%) [5]: 95.3%
- Maximum MFI [6]: 254000
B1: Control antibody 1 (PR000157) (antibody, V domains shown)
VH: EVQLVQSGAEVKKPGASVKVSCKASGYTFTSYWIGWVRQAPGQGLEWIGDIYPGGGYTNYNEKFKGRVTITRDTSTSTAYLELSSLRSEDTAVYYCARLAGSSYRGAMDSWGQGTLVTVSS
VL: DIQMTQSPSSLSASVGDRVTITCKASQGFNKYVAWYQQKPGKAPKLLIYYTSTLQPGVPSRFSGSGSGRDYTLTISSLQPEDFATYYCLQYGDLLYAFGQGTKVEIKR
notes: Anti-B7H4 IgG1 control antibody from WO2016040724A1; also called 1D11.v1.9varC2

Reference: US20230312722A1 (NONA BIOSCIENCES SUZHOU, published 2023)
